US20100292309A1

Molecular target: H-2Kb-restricted ova peptide SIINFEKL presented on H-2Kb (chicken)
Experiment: cell-based or functional assay

- IFN-gamma ELISPOT, spots per well (spots per well): > 1000
Substance: transgenic OT-I T-cell receptor (TCR)
